Data published in patent US20140170168A1 (published 2014).

T1: RTL302 (empty two-domain HLA-DR2 RTL) (human)
T1 construct: Two-domain MHC class II without antigenic peptide; also called empty DR2; DR2 (empty)
T1 chain: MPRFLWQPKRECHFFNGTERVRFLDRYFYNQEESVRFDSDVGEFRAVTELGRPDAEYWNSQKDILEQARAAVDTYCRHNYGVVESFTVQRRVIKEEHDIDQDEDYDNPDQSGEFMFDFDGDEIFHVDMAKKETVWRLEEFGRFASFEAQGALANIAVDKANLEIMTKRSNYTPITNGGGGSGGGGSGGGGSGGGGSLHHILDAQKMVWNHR

T2: RTL600 (empty two-domain HLA-DP2 RTL) (human)
T2 construct: also called DP2 (empty)
T2 chain: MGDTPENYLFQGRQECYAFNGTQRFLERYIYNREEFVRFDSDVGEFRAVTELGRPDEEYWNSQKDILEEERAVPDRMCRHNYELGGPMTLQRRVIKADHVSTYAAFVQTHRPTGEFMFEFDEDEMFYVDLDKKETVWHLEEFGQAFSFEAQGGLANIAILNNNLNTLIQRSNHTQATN

T3: RTL2010 (two-domain β1α1 HLA-DR4 with covalently linked GAD-555-567 peptide) (human)
T3 construct: also called RTL2010-BirA
T3 chain: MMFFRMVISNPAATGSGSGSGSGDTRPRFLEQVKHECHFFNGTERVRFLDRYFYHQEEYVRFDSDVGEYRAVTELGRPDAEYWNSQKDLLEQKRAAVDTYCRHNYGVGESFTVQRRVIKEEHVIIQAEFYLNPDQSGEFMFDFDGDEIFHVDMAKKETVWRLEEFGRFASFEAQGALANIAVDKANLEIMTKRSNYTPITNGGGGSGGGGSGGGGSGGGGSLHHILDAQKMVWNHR

T4: RTL302 (empty DR2 RTL) loaded with free MOG-35-55 peptide (human)
T4 construct: also called empty β1α1DR2-RTL loaded with MOG-35-55 peptide; MOG-35-55 loaded empty RTL302
T4 chain: T1 chain
T4 peptide: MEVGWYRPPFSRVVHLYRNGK

T5: RTL340 (two-domain β1α1 HLA-DR2 with covalently linked MBP-85-99 peptide) (human)
T5 construct: also called RTL340-BirA; DR2/MBP-85-99
T5 chain: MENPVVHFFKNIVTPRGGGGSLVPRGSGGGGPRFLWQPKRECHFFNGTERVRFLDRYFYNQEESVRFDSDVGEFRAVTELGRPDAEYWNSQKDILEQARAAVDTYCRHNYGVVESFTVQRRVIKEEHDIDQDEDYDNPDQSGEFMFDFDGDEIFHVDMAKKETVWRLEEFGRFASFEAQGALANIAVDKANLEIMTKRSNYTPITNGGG

T6: RTL342m (two-domain β1α1 HLA-DR2 with mouse MOG-35-55 peptide) (mouse)
T6 construct: Differs from RTL1000 by the Pro to Ser change at position 42 of MOG; also called DR2/mMOG-35-55; β1α1DR2/mMOG-35-55
T6 chain: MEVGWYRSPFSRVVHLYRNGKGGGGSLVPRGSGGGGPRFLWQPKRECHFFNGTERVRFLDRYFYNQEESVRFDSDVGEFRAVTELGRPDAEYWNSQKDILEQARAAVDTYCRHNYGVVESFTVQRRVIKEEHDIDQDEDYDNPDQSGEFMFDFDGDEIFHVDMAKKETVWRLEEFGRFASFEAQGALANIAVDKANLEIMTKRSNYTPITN

B1: Fab 1B11 (Fab, V domains shown)
VH: EVQLVQSGAEVKKPGASVRVSCKASGYTFTSYGISWVRQAPGQGLEWMGWISAYNGNTNYAQKLQGRVTMTTDTSTSTAYMELRSLRSDDTAVYYCARDIRAYGSGSYSRYYYYGMDVWGQGTTVTVSS
VL: EIVLTQSPATLSVSPGERATLSCRASQNIGSILAWYQHKPGQAPRLLIYGASTRATGIPARFSGSGSGTEFTLTISSLQSDDFAVYYCQQYLYWPFTFGGGTKVEIKR
notes: also called 1B11 Fab
B2: Fab D2 (Fab, V domains shown)
VH: EVQLVQSGAEVKKPGSSVKVSCKASGGTFSSYAISWVRQAPGQGLEWMGIINPSGGSTSYAQKFQGRVTITADKSTSTAYMELSSLRSEDTAVYYCARGGPTGIFDYWGQGTLVTVSS
VL: EIVLTQSPATLSLSPGERATLSCRASQSVSSYLAWYQQKPGQAPRLLIYDASNRATGIPARFSGSGSGTDFTLTISSLEPEDFAVYYCQQRSNWPLTFGGGTKVEIKR
notes: the heavy chain entry holds VH, CH1, connector, His tag and Myc tag; also called D2 Fab
B3: Fab 3H5 (Fab, V domains shown)
VH: QVQLQESGPGLVKPSETLSLTCTVSGGSISGYYWSWIRQPPGKGLEWIGYIYYSGSTNYNPSLKSRVSISVDTSKNQFSLRLSSVTAADSAVYFCARDERDAYYYGMDVWGQGTTVTVSS
VL: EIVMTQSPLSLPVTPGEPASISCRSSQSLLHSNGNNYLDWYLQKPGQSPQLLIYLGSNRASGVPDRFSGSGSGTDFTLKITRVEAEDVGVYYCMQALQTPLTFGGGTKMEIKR
notes: also called 3H5 Fab
B4: RTL1000 (two-domain β1α1 HLA-DR2 with covalently linked human MOG-35-55 peptide) (peptide-MHC)
chain: MEVGWYRPPFSRVVHLYRNGKGGGGSLVPRGSGGGGPRFLWQPKRECHFFNGTERVRFLDRYFYNQEESVRFDSDVGEFRAVTELGRPDAEYWNSQKDILEQARAAVDTYCRHNYGVVESFTVQRRVIKEEHDIDQDEDYDNPDQSGEFMFDFDGDEIFHVDMAKKETVWRLEEFGRFASFEAQGALANIAVDKANLEIMTKRSNYTPITNGGGGSGGGGSGGGGSGGGGSLHHILDAQKMVWNHR
notes: also called RTL1000-BirA; DR2/MOG-35-55
B5: Fab 2C3 (Fab, V domains shown)
VH: QVQLVQSGGGVVQPGRSLRLSCAASGFTFSSYAMHWVRQAPGKGLEWVAVISYDGSNKYYADSVKGRFTISRDNSKNTLYLQMNSLRAEDTAVYYCARDRSFWSGYYIINYYYYGMDVWGQGTTVTVSS
VL: DVVMTQSPLSLPVTPGEPASISCRSSQSLLHSDGNNYLDWYLQKPGQSPQLLIYLGSNRASGVPDRFSGSGSGTDFTLKISRVEPEDVGVYYCMQALHIPLTFGQGTRLEIKR
notes: also called 2C3 Fab
B6: Fab 1F11 (Fab, V domains shown)
VH: QLQLQESGPGLVKPSETLSLTCTVSGVSISSRSGHWGWVRQPPGKGLEWIGSISYSGSTYYNPSLKSRVTISVDTSKNQLSLKLSSVTAADTAVYYCARESHPAAALVGWGQGTLVTVSS
VL: ETTLTQSPGTLSLSPGERATLSCRASQSIINSHLAWYQQKPGQAPRLLIYGASSRATGIPDRFSGGGSGTDFTLTITRLETEDFALYFCQQYGTSPLTFGGGTRVETKR
notes: also called 1F11 Fab
B7: Fab 3A3 (Fab, V domains shown)
VH: QVQLQESGGGLVKPGGSLRLSCAASGFTFSSYSMNWVRQAPGKGLEWVSSISSSSSYIYYADSVKGRFTISRDNAKNSLYLQMNSLRAEDTAVYYCARVRGHRYYYDSSGYYSSDYYYYYGMDVWGQGTTVTVSS
VL: DIQLTQSPSSVSASVGDRVTITCRASQVISSWLAWYQQKPGKAPKLLISTASSLQSGVPPRFSGSGSGTDFTLTITSLQPEDFATYYCQQANSFPLTFGQGTKVEIKR
notes: also called 3A3 Fab
B8: Fab 2E4 (Fab, V domains shown)
VH: EVQLVESGAEVKKPGASVKVSCKASGYTFTSYYMHWVRQAPGQGLEWMGIINPSGGSTSYAQKFQGRVTMTRDTSTSTVYMELSSLRSEDTAVYYCAREGDNYYGDAFDIWGQGTMVTVSS
VL: EIVLTQSPATLSLSPGERATLSCRASQSVSSYLAWYQQKPGQAPRLLIYDASNRATGIPARFSGSGSGTDFTLTISSLEPEDFAVYYCQQRSNWPPSYTFGQGTKLEIKR
notes: also called 2E4 Fab; anti-RTL1000 TCRL Fab

Experiments:
[1] = target: T1, RTL302 (empty two-domain HLA-DR2 RTL); assay: ELISA, soluble purified Fab on immobilised biotinylated complex or peptide
Protocol: (§1) Binding specificity of individual phage clone supernatants and soluble Fab fragments were determined by ELISA using biotinylated two and four-domain MHC/peptide complexes. ELISA plates (Falcon) were coated overnight with BSA-biotin (1 μg/well). After being washed, the plates were incubated (1 hour at room temperature) with streptavidin (10 μg/ml), washed extensively and further incubated (1 hour at room temperature) with 5 μg/ml of MHC/peptide complexes. The plates were blocked for 30 minutes at room temperature with PBS/2% skim milk and subsequently were incubated for 1 hour at room temperature with phage clone supernatants (induced at OD₆₀₀=0.8-1.0 for overnight expression at 30° C.) or 5 μg/ml soluble purified Fab. After washing, plates were incubated with horseradish peroxidase-conjugated/anti-human-Fab antibody. Detection was performed using TMB reagent (Sigma). For binding of peptide-loaded RTLs, ELISA plates were coated 2 hours at 37° C. with purified Fab, washed extensively and blocked for 30 minutes with PBS/2% skim milk. […] After washing, plates were incubated with horseradish peroxidase-conjugated/anti-mouse-IgG antibody and detection was performed as described above.

[2] = target: T2, RTL600 (empty two-domain HLA-DP2 RTL); assay: ELISA, purified Fab 1B11 on immobilised RTLs and four-domain complexes
Protocol: as §1

[3] = target: T3, RTL2010 (two-domain β1α1 HLA-DR4 with …); assay: as above
Protocol: as §1

[4] = target: T3, RTL2010 (two-domain β1α1 HLA-DR4 with …); assay: ELISA on immobilised RTL and four-domain complex (FIG. 8C)
Protocol: as §1

[5] = target: T4, RTL302 (empty DR2 RTL) loaded with free …; assay: sandwich ELISA: plate coated with purified Fab, loaded or empty RTL302 added, detection with mAb TU39
Protocol: as §1

[6] = target: B4; assay: SPR (ProteOn XPR36), Fab captured by immobilised anti-Fab, RTL1000 injected at 62.5-1000 nM
Protocol: Six channels were activated with 50 μl of a mixture of 0.04 M N-ethyl-N-(3-dimethylaminopropyl) carbodiimide (EDC) and 0.01 M sulfo-N-hydroxysuccinimide (Sulfo-NHS) at a flow rate of 30 μl/min. The anti-Fab specific Fab was diluted in 10 mM sodium acetate buffer pH 4.5 to a final concentration of 25 μg/ml, and 150 μl were injected followed by an injection of 150 μl of 1 M ethanolamine-HCl pH 8.5. The immobilization levels were about 4,000 RU. Next, 150 μl of five different supernatants were injected in the vertical orientation in five different channels to allow their capture by the immobilized Fab anti Fab. The sixth channel remained empty to serve as a reference. […] Running buffer was injected simultaneously in the sixth channel for double referencing to correct for loss of the captured supernatant from the chip sensor surface during the experiment. All binding sensorgrams were collected, processed and analyzed using the integrated ProteOn XPR36 system Manager (Bio-Rad Laboratories, Hercules, USA) software. Binding curves were fitted using the Langmuir model describing 1:1 binding stoichiometry, or with the Langmuir and mass transfer limitation model. Each individually captured antibody interacting with the five concentrations of antigen was fitted using a global ka, kd and Rmax. Global fitting is used when the same ka, kd and Rmax values describe a specific biological model like five antigen concentrations interacting with a certain antibody.

[7] = target: T5, RTL340 (two-domain β1α1 HLA-DR2 with …); assay: ELISA, soluble purified Fab on immobilised biotinylated complex or peptide
Protocol: as §1

Fab 2E4 = target: B8; assay: competition ELISA: soluble competitor varied, binding of purified Fab 2E4 to immobilised RTL1000 read
Fab 2C3 = target: B5; assay: competition ELISA: soluble competitor varied, binding of purified Fab 2C3 to immobilised RTL1000 read
[8] = target: T6, RTL342m (two-domain β1α1 HLA-DR2 with …); assay: ELISA, soluble Fab on immobilised RTL (FIG. 3A)
Protocol: as §1

Binder | binding result [1] | binding result [2] | binding result [3] | binding result [4] | binding result [5] | Kd [6] [nM] | binding result [7] | binding result (Fab 2E4) | binding result (Fab 2C3) | fold reduction in binding to RTL342m compared to RTL1000 [8] [fold]
B1 | binds | no binding (tested: 5 µg/ml Fab) | binds | – | – | – | – | – | – | –
B2 | – | – | – | binds | – | – | – | – | – | –
B3 | no binding (tested: 5 µg/ml Fab) | – | – | – | binds | 129 | no binding (tested: 5 µg/ml Fab) | – | – | –
B4 | – | – | – | – | – | – | – | binds | binds | –
B5 | no binding (tested: 5 µg/ml Fab) | – | – | – | binds | 153 | no binding (tested: 5 µg/ml Fab) | – | – | –
B6 | no binding (tested: 5 µg/ml Fab) | – | – | – | binds | 60 | no binding (tested: 5 µg/ml Fab) | – | – | 5
B7 | no binding (tested: 5 µg/ml Fab) | – | – | – | binds | 58 | no binding (tested: 5 µg/ml Fab) | – | – | 5
B8 | no binding (tested: 5 µg/ml Fab) | – | – | – | binds | 33 | no binding (tested: 5 µg/ml Fab) | – | – | 2
